Numbered stars: 1 amine (or outer) side, 2 acyl side, 3 side chain; on linkers, the order of the positions; unused ones are H or OH. Square brackets hold non-standard residues; d marks the D form. Primed or numbered codes have the meaning given here. Side chains are listed from the residue outwards. Ends that are not written are not given here. * marks the point of attachment. C20 diacid = O=C(O)CCCCCCCCCCCCCCCCCCC(=O)*; C18 diacid = O=C(O)CCCCCCCCCCCCCCCCC(=O)*; C16 diacid = O=C(O)CCCCCCCCCCCCCCC(=O)*; γGlu = O=C(O)[C@H](CCC(=O)[*:2])N[*:1]; Iva = CC[C@](C)(N)C(=O)O; PEG3′ = not defined here; Abu = CC[C@H](N)C(=O)O; Aib = CC(C)(N)C(=O)O
T1: full-length human GIPR (GenBank NM_000164) with an N-terminal FLAG tag on HEK-293T cells (human), P48546
T1 chain: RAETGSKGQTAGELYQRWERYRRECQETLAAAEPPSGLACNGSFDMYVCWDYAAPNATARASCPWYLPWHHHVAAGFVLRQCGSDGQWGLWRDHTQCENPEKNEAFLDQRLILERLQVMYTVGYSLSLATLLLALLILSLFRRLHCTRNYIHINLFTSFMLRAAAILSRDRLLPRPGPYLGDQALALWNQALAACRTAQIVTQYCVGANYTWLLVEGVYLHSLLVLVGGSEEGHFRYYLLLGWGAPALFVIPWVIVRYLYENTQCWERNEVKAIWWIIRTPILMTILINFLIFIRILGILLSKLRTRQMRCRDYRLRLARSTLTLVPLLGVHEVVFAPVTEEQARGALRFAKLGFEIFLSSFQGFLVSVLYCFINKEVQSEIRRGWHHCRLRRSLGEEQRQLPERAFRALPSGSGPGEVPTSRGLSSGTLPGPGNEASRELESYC

T2: full-length human GLP-1R (GenBank NM_002062) with an N-terminal FLAG tag on HEK-293T cells (human), P43220
T2 chain: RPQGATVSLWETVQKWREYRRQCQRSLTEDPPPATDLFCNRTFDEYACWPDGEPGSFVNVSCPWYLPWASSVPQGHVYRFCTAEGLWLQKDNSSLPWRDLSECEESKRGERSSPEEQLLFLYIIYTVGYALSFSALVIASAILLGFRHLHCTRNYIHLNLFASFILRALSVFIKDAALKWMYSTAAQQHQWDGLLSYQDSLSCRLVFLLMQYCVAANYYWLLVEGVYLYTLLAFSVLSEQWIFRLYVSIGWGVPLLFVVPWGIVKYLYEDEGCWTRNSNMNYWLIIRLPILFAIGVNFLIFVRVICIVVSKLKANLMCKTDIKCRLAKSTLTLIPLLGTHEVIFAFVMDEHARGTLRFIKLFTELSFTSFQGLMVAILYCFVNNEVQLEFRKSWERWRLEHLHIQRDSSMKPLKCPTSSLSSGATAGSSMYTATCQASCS


Assays:
[1] = biological target: T1, full-length human GIPR (GenBank …); test: cell-based or functional assay
[2] = biological target: T2, full-length human GLP-1R (GenBank …); test: cell-based or functional assay

Row | Binder | GIP EC50(pM) [1] [pM] | GLP EC50 [2] [nM]
1 | Y[Aib]EGTFISDYSIALDR[Aib]HQ[Aib]NFVNW[Iva]LAQRPK([PEG3′-PEG3′-C20 diacid])SGAPPPSR (ends and bridges not checked) [Compound No 894] | 1.9 | 794
2 | Y[Aib]EGTFISDYSIALDR[Aib]HQ[Aib]NFVNW[Iva]LAQRPSK([PEG3′-PEG3′-C18 diacid])GAPPPSR (ends and bridges not checked) [Compound No 899] | 0.7 | 144
3 | Y[Aib]EGTFISDYSIALDR[Aib]HQ[Aib]NFVNW[Iva]LAQRPSSK([Abu-γGlu-C18 diacid])APPPS (ends and bridges not checked) [Compound No. 540] | 3.01 | > 1000
4 | Y[Aib]EGTFISDYSIALDR[Aib]HQ[Aib]NFVNW[Iva]LAQRPK([PEG3′-PEG3′-C16 diacid])SGAPPPSR (ends and bridges not checked) [Compound No 892] | 1.7 | 151
5 | Y[Aib]EGTFISDYSIALDR[Aib]HQ[Aib]NFVNW[Iva]LAQRPSSGAPK([Abu-γGlu-C18 diacid])PS (ends and bridges not checked) [Compound No. 543] | 0.72 | > 1000
6 | Y[Aib]EGTFISDYSIALDR[Aib]HQ[Aib]NFVNW[Iva]LAQRPSSGAK([Abu-γGlu-C18 diacid])PPS (ends and bridges not checked) [Compound No. 542] | 1.21 | > 1000
7 | Y[Aib]EGTFISDYSIALDR[Aib]HQ[Aib]NFVNW[Iva]LAQRPSSGAPK([PEG3′-PEG3′-C16 diacid])PSR (ends and bridges not checked) [Compound No 927] | 1.3 | 436
8 | Y[Aib]EGTFISDYSIALDR[Aib]HQ[Aib]NFVNW[Iva]LAQRK([Abu-γGlu-C18 diacid])SSGAPPPS (ends and bridges not checked) [Compound No. 537] | 1.32 | > 1000
9 | Y[Aib]EGTFISDYSIALDR[Aib]HQ[Aib]NFVNW[Iva]LAQRK([PEG3′-PEG3′-C18 diacid])SSGAPPPSR (ends and bridges not checked) [Compound No 912] | 0.7 | 105
10 | Y[Aib]EGTFISDYSIALDR[Aib]HQ[Aib]NFVNW[Iva]LAQRPSSGAPPPK([Abu-γGlu-C18 diacid]) (ends and bridges not checked) [Compound No. 545] | 0.43 | > 1000
11 | Y[Aib]EGTFISDYSIALDR[Aib]HQ[Aib]NFVNW[Iva]LAQRPSSGK([Abu-γGlu-C18 diacid])PPPS (ends and bridges not checked) [Compound No. 541] | 0.73 | > 1000
12 | Y[Aib]EGTFISDYSIALDR[Aib]HQ[Aib]NFVNW[Iva]LAQRPSSGAPK([PEG3′-PEG3′-C18 diacid])PSR (ends and bridges not checked) [Compound No 928] | 1.6 | 135
13 | Y[Aib]EGTFISDYSIALDR[Aib]HQ[Aib]NFVNW[Iva]LAQRPSSGAPK([γGlu-γGlu-C18 diacid])PS (ends and bridges not checked) [Compound No. 553] | 1.08 | > 1000
14 | Y[Aib]EGTFISDYSIALDR[Aib]HQ[Aib]NFVNW[Iva]LAQRPSK([Abu-γGlu-C18 diacid])GAPPPS (ends and bridges not checked) [Compound No. 539] | 2.66 | > 1000
15 | Y[Aib]EGTFISDYSIALDR[Aib]HQ[Aib]NFVNW[Iva]LAQRPSSGAPPPK([γGlu-γGlu-C18 diacid]) (ends and bridges not checked) [Compound No. 555] | 0.97 | > 1000
16 | Y[Aib]EGTFISDYSIALDR[Aib]HQ[Aib]NFVNW[Iva]LAQRPSK([PEG3′-PEG3′-C16 diacid])GAPPPSR (ends and bridges not checked) [Compound No 898] | 0.6 | 74.1
17 | Y[Aib]EGTFISDYSIALDR[Aib]HQ[Aib]NFVNW[Iva]LAQRPK([Abu-γGlu-C18 diacid])SGAPPPS (ends and bridges not checked) [Compound No. 538] | 1.8 | > 1000
18 | Y[Aib]EGTFISDYSIALDR[Aib]HQ[Aib]NFVNW[Iva]LAQRK([γGlu-γGlu-C18 diacid])SSGAPPPS (ends and bridges not checked) [Compound No. 547] | 0.41 | > 1000
19 | Y[Aib]EGTFISDYSIALDR[Aib]HQ[Aib]NFVNW[Iva]LAQRPSK([γGlu-γGlu-C18 diacid])GAPPPS (ends and bridges not checked) [Compound No. 549] | 0.85 | > 1000
20 | Y[Aib]EGTFISDYSIALDR[Aib]HQ[Aib]NFVNW[Iva]LAQRPSSGK([γGlu-γGlu-C18 diacid])PPPS (ends and bridges not checked) [Compound No. 551] | 0.6 | > 1000
21 | Y[Aib]EGTFISDYSIALDR[Aib]HQ[Aib]NFVNW[Iva]LAQRK([PEG3′-PEG3′-C16 diacid])SSGAPPPSR (ends and bridges not checked) [Compound No 911] | 0.8 | 93.3
22 | Y[Aib]EGTFISDYSIALDR[Aib]HQ[Aib]NFVNW[Iva]LAQRPSK([PEG3′-PEG3′-C20 diacid])GAPPPSR (ends and bridges not checked) [Compound No 900] | 0.7 | 219
23 | Y[Aib]EGTFISDYSIALDR[Aib]HQ[Aib]NFVNW[Iva]LAQRPSSGAK([γGlu-γGlu-C18 diacid])PPS (ends and bridges not checked) [Compound No. 552] | 1.12 | > 1000
24 | Y[Aib]EGTFISDYSIALDR[Aib]HQ[Aib]NFVNW[Iva]LAQRPSSGAPPK([Abu-γGlu-C18 diacid])S (ends and bridges not checked) [Compound No. 544] | 0.94 | > 1000
25 | Y[Aib]EGTFISDYSIALDR[Aib]HQ[Aib]NFVNW[Iva]LAQRPSSK([γGlu-γGlu-C18 diacid])APPPS (ends and bridges not checked) [Compound No. 550] | 0.83 | > 1000
26 | Y[Aib]EGTFISDYSIALDR[Aib]HQ[Aib]NFVNW[Iva]LAQRPK([PEG3′-PEG3′-C18 diacid])SGAPPPSR (ends and bridges not checked) [Compound No 893] | 2.3 | 2.1
27 | Y[Aib]EGTFISDYSIALDR[Aib]HQ[Aib]NFVNW[Iva]LAQRPSSGAPPK([γGlu-γGlu-C18 diacid])S (ends and bridges not checked) [Compound No. 554] | 0.82 | > 1000
28 | Y[Aib]EGTFISDYSIALDR[Aib]HQ[Aib]NFVNW[Iva]LAQRPK([γGlu-γGlu-C18 diacid])SGAPPPS (ends and bridges not checked) [Compound No. 548] | 0.81 | > 1000
